From patent US20240240141A1, “RAPID AND EFFICIENT CLINICAL GRADE PIGMENT EPITHELIUM INDUCTION METHOD, KIT, AND APPLICATION” (ALLIFE MEDICINE (ZHUHAI) LIMITED, priority 2021, published 2024) come the findings set out here.

In the experiment the test system is iPSCs. Description: qPCR of PAX6 expression in iPSCs cultured in RDM1 with different BMP signaling pathway inhibitors. It is filed as cell-based. The following applies: 50 ng/mL noggin in RDM1 culture medium, day 6, Day 0 as control; compared with 2 μM Dorsomorphin or 3 μM LDN-193189 (FIG. 9). As to the method:
1. Collect 200W cells, adding 1 ml TRIZOL, extracting RNA and determining the RNA concentration. Taking 1 μg RNA and reverse-transcribing it into cDNA. Premixing according to the system as follows in Table 1.
2. Then putting the above system into the Light cycler instrument for reaction according to the 3-step method with a number of cycles of 45. The reaction system is as follows in Table 2:
iPSCs were cultured according to the method of Example 1. 50 ng/mL noggin, 2 μM Dorsomorphin or 3 μM LDN-193189 was added to the RDM1 culture medium as three sets of parallel controls. The expression level of PAX6 in the cells on day 6 was detected.
The results are shown in FIG. 9: Day 0 was used as a control. The expression level of PAX6 was detected after 6 days of cell differentiation.
Background: Real-time PCR tracks product formation cycle by cycle.

B1: noggin (protein, UniProt Q13253 28-232, looked up)
Noggin: QHYLHIRPAPSDNLPLVDLIEHPDPIFDPKEKDLNETLLRSLLGGHYDPGFMATSPPEDRPGGGGGAAGGAEDLAELDQLLRQRPSGAMPSEIKGLEFSEGLAQGKKQRLSKKLRRKLQMWLWSQTFCPVLYAWNDLGSRFWPRYVKVGSCFSKRSCSVPEGMVCKPSKSVHLTVLRWRCQRRGGQRCGWIPIQYPIISECKCSC
B1: the “expression level of PAX6” value was “the best effect and the highest expression level of PAX6”.
